US20250264433A1

What was measured:
[1] = target: EspB cyclic peptide #50 (positions 197-211) (Enteropathogenic Escherichia coli (EPEC)); assay: ELISA, plate coated with peptide #50, serially diluted mAb, anti-human IgG-HRP
[2] = target: EspB cyclic peptide #49 (positions 193-207) (Enteropathogenic Escherichia coli (EPEC)); assay: ELISA, plate coated with peptide #49, serially diluted mAb, anti-human IgG-HRP

| Binder | IC50 (read off the curve) (mAb-EspB-B7) [µg/mL] | EC50 (read off the curve) [1] [µg/mL] | EC50 (read off the curve) [2] [µg/mL] |
| --- | --- | --- | --- |
| CTSAQKASQVAEEAADC (modifications not checked) [EspB cyclic peptide #49 (positions 193-207)] | 0.8 |  |  |
| mAb-EspB-B7 (antibody, V domains shown) VH: EVQLLESGGGLVQPGGSLRLSCAASGFTFSHYAMNWVRQAPGKGLEWVSAINSNGDSTYYPDTVKDRFTISRDNSKNTLYLQMNSLRAEDTAVYYCARDRRAGYFDYWGQGTLVTVSS VL: DIVLTQPPSASGTPGQRVTISCSGSRDNIGKNYVSWYQQLPGTAPKLLIYRNNQRPSGVPDRFSGSKSGTSASLAISGLRSEDEADYYCSAWDTSLNAYVFGPGTQLTVL |  | 0.5 | 0.5 |
